Primed or numbered codes have the meaning given here. The star is where a group is joined. (^19F)FBA = O=C(c1ccc([19F])cc1)*; PEG11′ = not defined here
T1: αvβ6 integrin (purified, captured on the ELISA plate), P06756
T1 chain 1: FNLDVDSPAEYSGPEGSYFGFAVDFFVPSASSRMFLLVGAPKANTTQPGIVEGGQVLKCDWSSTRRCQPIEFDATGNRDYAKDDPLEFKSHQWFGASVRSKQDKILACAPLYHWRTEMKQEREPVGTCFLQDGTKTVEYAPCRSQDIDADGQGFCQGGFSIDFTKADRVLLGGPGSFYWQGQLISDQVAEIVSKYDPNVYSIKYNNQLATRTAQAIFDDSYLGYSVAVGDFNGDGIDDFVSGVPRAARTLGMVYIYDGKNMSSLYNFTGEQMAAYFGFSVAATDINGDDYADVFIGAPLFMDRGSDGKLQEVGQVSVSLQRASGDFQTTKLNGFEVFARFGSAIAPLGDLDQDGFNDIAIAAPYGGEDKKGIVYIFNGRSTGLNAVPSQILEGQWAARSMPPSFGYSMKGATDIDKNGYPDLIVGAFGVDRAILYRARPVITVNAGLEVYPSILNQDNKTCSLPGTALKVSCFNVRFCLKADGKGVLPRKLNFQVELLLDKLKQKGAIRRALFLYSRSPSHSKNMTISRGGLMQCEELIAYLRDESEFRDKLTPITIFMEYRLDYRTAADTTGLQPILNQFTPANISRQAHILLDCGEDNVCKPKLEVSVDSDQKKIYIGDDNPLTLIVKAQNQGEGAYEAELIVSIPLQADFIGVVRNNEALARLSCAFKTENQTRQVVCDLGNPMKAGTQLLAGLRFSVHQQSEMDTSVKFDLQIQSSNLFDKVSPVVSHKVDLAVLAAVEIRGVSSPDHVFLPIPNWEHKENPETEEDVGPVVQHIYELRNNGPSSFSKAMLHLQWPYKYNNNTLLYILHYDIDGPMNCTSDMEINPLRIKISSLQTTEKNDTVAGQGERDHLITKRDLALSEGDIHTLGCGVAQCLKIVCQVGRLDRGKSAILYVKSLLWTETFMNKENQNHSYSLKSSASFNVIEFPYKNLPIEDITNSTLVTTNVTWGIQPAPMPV
T1 chain 2: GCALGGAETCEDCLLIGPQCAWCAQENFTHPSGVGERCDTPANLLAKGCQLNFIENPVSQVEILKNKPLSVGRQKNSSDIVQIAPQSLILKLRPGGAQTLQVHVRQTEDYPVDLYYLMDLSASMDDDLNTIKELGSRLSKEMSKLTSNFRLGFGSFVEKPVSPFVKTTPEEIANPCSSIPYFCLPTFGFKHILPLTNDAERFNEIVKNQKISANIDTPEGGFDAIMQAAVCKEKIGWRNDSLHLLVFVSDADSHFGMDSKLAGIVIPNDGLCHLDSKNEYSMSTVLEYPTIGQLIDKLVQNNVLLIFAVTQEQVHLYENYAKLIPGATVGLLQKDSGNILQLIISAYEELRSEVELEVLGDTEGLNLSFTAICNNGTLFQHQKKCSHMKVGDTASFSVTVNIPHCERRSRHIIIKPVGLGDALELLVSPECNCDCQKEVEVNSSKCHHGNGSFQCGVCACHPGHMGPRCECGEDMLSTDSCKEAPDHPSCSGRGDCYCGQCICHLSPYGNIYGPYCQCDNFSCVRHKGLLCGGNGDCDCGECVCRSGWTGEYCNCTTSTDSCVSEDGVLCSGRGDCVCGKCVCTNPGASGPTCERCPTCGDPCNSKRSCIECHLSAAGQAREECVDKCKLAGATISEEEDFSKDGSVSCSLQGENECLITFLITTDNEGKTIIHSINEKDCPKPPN

B1: H-…([^19F]FBA)-NH2 (peptide)
peptide: H-RSDLTPLFK((^19F)FBA)-NH2
B2: [^19F]FBA-PEG11-RSDLTPLF-PEG11-NH2 (peptide)
peptide: {(^19F)FBA-PEG11′}-RSDLTPLF-{PEG11′-NH2}
B3: [^19F]FBA-RSDLTPLF-PEG11-NH2 (peptide)
peptide: {(^19F)FBA}-RSDLTPLF-{PEG11′-NH2}
B4: [^19F]FBA-PEG11-RSDLTPLF-NH2 (peptide)
peptide: {(^19F)FBA-PEG11′}-RSDLTPLF-NH2
B5: [^19F]FBA-RSDLTPLF-NH2 (peptide)
peptide: {(^19F)FBA}-RSDLTPLF-NH2

Biological target: T1, αvβ6 integrin (purified, captured on …)
Experiment: competitive ELISA; captured αvβ6; competitor biotinylated fibronectin

In order of rising IC50:
1. B5  7 nM
2. B2  25 nM
3. B1  34 nM
4. B3  40 nM
5. B4  40 nM

From patent US20210206804A1
